Article PMC7644671 (Nature structural & molecular biology, 2020)

Target: the molecule itself
Test: cryo-EM structure

B1: mouse DUOX1 (enzyme, mouse (Mus musculus), UniProt A2AQ92 20-1551, looked up)
chain: GAQNSISWEVQRFDGWYNNLMEHRWGSKGSRLQRLVPASYADGVYQPLKEPYLPNPRHLSNRVMRGSAGQPSLRNRTVLGVFFGYHVLSDLVSVETPGCPAEFLNIYIPHGDPVFDPDKRGNVVLPFQRSRWDRNTGQSPSNPRDQSNQVTGWLDGSAIYGSSHSWSDTLRSFSGGQLASGPDPAFPSDSQSSLLMWMAPDPSTGQGGPRGVYAFGAQRGNREPFLQALGLLWFRYHNLCARKLAQEHPHWGDEELFQHARKRVIATYQNIAMYEWLPSFLKQTPPEYPGYRPFLDPSISPEFVVASEQFLSTMVPSGVYMRNASCHFQGIPSHNSSVSGALRVCNSYWSREHPKLQRAEDVDALLLGMASQIAEREDHVVVEDMQDFWPGPLKFSRTDYLASCLQRGRDLGLPSYTKAREALGLSPISHWQDINPALSRSNGTVLEATAALYNQDLSRLELLPGGLLESHGDPGPLFSTIVLDQFVRLRDGDRYWFENTRNGLFSKEEIAEIRNTSLRDILVAVTNVDPSALQPNVFFWLAGDPCPQPSQLSAKGLPACAPLFIRDYFEGSGFGFGLTIGTLCCFPLVSLLSAWIVARLRKRNFKRLQRQDRQSIMSEKLVGGVEALEWQGRNEPCRPVLVHLQPGQIRVVDGRLTVLRTIQLRPPQQVNLILSSNRGRRTLLLKIPKEYDLVLLFNMEEERQALVENVRGALKENGLSFQEWELREQELMRAAVTRQQRGHLLETFFRHLFSQVLDINQADAGTLPLDSSTKVREALTCELSRAEFADSLGLKPQDMFVESMFSLADKDGNGYLSFREFLDILVVFMKGSPEEKSRLMFRMYDFDGNGLISKDEFIRMLRSFIEISNNCLSKAQLAEVVESMFRESGFQDKEELTWEDFHFMLRDHDSDLRFTQLCVKGVEVPEVIKNLCRRASYISQEKICPSPRMSAHCARNNMKTASSPQRLQCPMDTDPPQEIRRRFGKKVTSFQPLLFTEAHREKFQRSRRHQTVQQFKRFIENYRRHIGCVAVFYTITGALFLERAYYYAFAAHHSGITDTTRVGIILSRGTAASISFMFSYILLTMCRNLITFLRETFLNRYIPFDAAVDFHRLIASTAIILTVLHSAGHVVNVYLFSISPLSVLSCLFPGLFHDDGSEFPQKYYWWFFQTVPGLTGVLLLLALAIMYVFASHHFRRRSFRGFWLTHHLYIFLYILLIIHGSFALIQMPRFHIFFLVPAIIYVGDKLVSLSRKKVEISVVKAELLPSGVTHLRFQRPQGFEYKSGQWVRIACLALGTTEYHPFTLTSAPHEDTLSLHIRAAGPWTTRLREIYSPPTGDTCARYPKLYLDGPFGEGHQEWHKFEVSVLVGGGIGVTPFASILKDLVFKSSVSCQVFCKKIYFIWVTRTQRQFEWLADIIREVEENDRQDLVSVHIYITQLAEKFDLRTTMLYICERHFQKVLNRSLFTGLRSITHFGRPPFEPFFNSLQEVHPQVRKIGVFSCGPPGMTKNVEKACQLINRQDRTHFSHHYENF
modifications: sugar densities at glycosylation sites N94, N324 and N534
stoichiometry N: 2
